Earlier results as cited in publication PMC12805357, “Cooperative ligand binding in a bacterial heme-based oxygen sensor” (The Journal of Biological Chemistry, 2025).

B1: HemAT-Bs: globin-coupled sensor from Bacillus subtilis, MCP output domain (protein, UniProt O07621 1-432, looked up)
Heme-based aerotactic …: MLFKKDRKQETAYFSDSNGQQKNRIQLTNKHADVKKQLKMVRLGDAELYVLEQLQPLIQENIVNIVDAFYKNLDHESSLMDIINDHSSVDRLKQTLKRHIQEMFAGVIDDEFIEKRNRIASIHLRIGLLPKWYMGAFQELLLSMIDIYEASITNQQELLKAIKATTKILNLEQQLVLEAFQSEYNQTRDEQEEKKNLLHQKIQETSGSIANLFSETSRSVQELVDKSEGISQASKAGTVTSSTVEEKSIGGKKELEVQQKQMNKIDTSLVQIEKEMVKLDEIAQQIEKIFGIVTGIAEQTNLLSLNASIESARAGEHGKGFAVVANEVRKLSEDTKKTVSTVSELVNNTNTQINIVSKHIKDVNELVSESKEKMTQINRLFDEIVHSMKISKEQSGKIDVDLQAFLGGLQEVSRAVSHVAASVDSLVILTEE
B2: hhMb: myoglobin comparison protein listed as hhMb in Table S2, literature values (protein, UniProt P68082 2-154, looked up)
Myoglobin: GLSDGEWQQVLNVWGKVEADIAGHGQEVLIRLFTGHPETLEKFDKFKHLKTEAEMKASEDLKKHGTVVLTALGGILKKKGHHEAELKPLAQSHATKHKIPIKYLEFISDAIIHVLHSKHPGDFGADAQGAMTKALELFRNDIAAKYKELGFQG

Tests used:
[1] = HemAT-Bs
[2] = set-up: method as in earlier work; conditions: myoglobins; ref 7 of the supplement (Faulkner et al., 1995)

Molecule	n (Hill coefficient), O2 binding [1]	Kd ([1]; read-out: Kd, equilibrium oxygen affinity) [µM]	Midpoint 1 (mV vs SHE) [2] [mV vs SHE]
B1	0.45	10	
B2			37
